The target of the experiment is viral gp41 (HIV-1 transmembrane protein) of HIV-1IIIB (HIV-1IIIB) (UniProt P03377). Briefly: cell-based or functional assay.

For “DP107 (SEQ ID NO:25), synthetic peptide of residues 558 to 595 of HIV-1LAI gp41”, the Cell fusion (IC90) came to 1000 nM and the HIV infectivity (IC90) stood at 1000 nM.

The substance “DP178 (SEQ ID NO:1), synthetic peptide of amino acids 638 to 673 of HIV-1LAI gp41” showed a Cell fusion (IC90) of 1 nM and an HIV infectivity (IC90) of 80 nM.

“M41 (maltose binding protein fused to the extracellular domain of HIV-1 gp41, residues 540-686) (from UniProt P0AEX9 27-392; P03377 540-686)” registered a Cell fusion (IC90) greater than 50000 nM and an HIV infectivity (IC90) greater than 16000 nM.

With “M41-P (M41 with an Ile to Pro mutation at position 578) (from UniProt P0AEX9 27-392; P03377 540-686)”, the Cell fusion (IC90) is 83 nM and the HIV infectivity (IC90) was 66 nM.

“M41-PΔ178 (M41-P from which the DP-178 region has been deleted; gp41 amino acids 540-642 with Ile578Pro) (from UniProt P03377 540-642)” gave a Cell fusion (IC90) greater than 50000 nM and an HIV infectivity (IC90) greater than 8000 nM.

The values are drawn from patent publication US6479055.
